Results from patent US20230025280A1, “PH RESPONSIVE COMPOSITIONS, FORMULATIONS, AND METHODS OF IMAGING A TUMOR” (ONCONANO MEDICINE, INC, priority 2019, published 2023).
Values joined by “and” are separate entries in the source; they are usually repeats but may differ in a detail not shown here. Identical values can stand only once.

Assay: Phase 1 (1a/1b) pharmacokinetics: plasma concentrations after single IV dose (validated direct fluorescence reader assay), noncompartmental analysis
Assay type: in vivo, human
Conditions: 1.2 mg/kg
Text: Phase 1 is a single-Principal Investigator, non-randomized, open-label, single-arm, cross-sectional study to evaluate the safety, PK profile, and imaging feasibility of Compound 1 in patients with solid cancers who require surgical excision. The main purpose of this study was to investigate the safety, PK, and feasibility of Compound 1 as an intra-operative optical imaging agent to detect tumors and metastatic lymph nodes in solid cancers. The study was intended to investigate the optimal dose range of Compound 1 for an adequate TBR and CNR of fluorescence obtained intraoperatively at 24 (±8) hours post dosing and with ex vivo specimens using ICG compatible cameras and imaging devices.
Phase 1 enrolled 30 patients with solid cancers (HNSCC, breast cancer, esophageal cancer, or colorectal cancer) who have a biopsy-confirmed diagnosis of respective tumor types and are scheduled to undergo surgical resection of the tumor. The study design included a standard 3+3 design for the dose-escalation portion (Phase 1a; N=18 maximum) followed by a dose-expansion portion (Phase 1b; N=15). All patients received a single I.V. dose of Compound 1, followed by routine surgery approximately 24 hours after infusion of Compound 1.
Phase 1a was a dose-finding study performed in 5 cohorts of 3 patients each. The dose levels evaluated were […], and 1.2 mg/kg, in this sequence. Inter-cohort dose escalation took place after the last patient in the previous cohort completed the Day 10 safety assessment. Safety, PK, and imaging feasibility were evaluated in both the Phase 1a and 1b portions of the study. Patient safety is assessed during the study and for up to 10 days post-dose.
Study design: Single Compound 1 IV dose was administered as a 1-5 minute IV infusion to patients in five cohorts (0.1, 0.3, 0.5, 0.8, and 1.2 mg/kg) with three patients per cohort in Phase 1a and 15 patients at a dose of 1.2 mg/kg in Phase 1b. Patient demographic information including tumor types is presented in Table 4 and 5 for Phase 1a and Table 5 for Phase 1b. Intertek Pharmaceutical Services (San Diego, Calif.) determined Compound 1 plasma concentrations using a validated direct fluorescence reader assay. Pacific BioDevelopment (Davis, Calif.) performed the PK analysis.
Sample collection: Blood samples were collected prior to infusion and at 10 minutes and 0.5, 1, 3, 8, 24, 48, 72, and 240 hours after infusion.
Analysis: Plasma concentration versus time profiles were generated for each patient. Pharmacokinetic parameters were estimated using Phoenix WinNonlin (version 8.0). According to SOP, concentrations reported as BQL were set to 0 except for the 0.5 h sample for subject #ON1102, which was set to LLOQ/2 ([…] value used in parameter calculations) and the 24 and 48 h samples.
If the coefficient of determination for the terminal slope estimation was less than 0.8, T1/2 was not reported (NR). AUC extrapolated to infinity is not reported for any data set because in all cases the % extrapolated AUC was greater than 20% and thus the AUCinf estimate would not be reliable. The concentration at 10 minutes, the first time point measured (C10m), was also reported for each patient.
The area under the plasma concentration versus time curves from dosing to the last time point with a measurable concentration (AUClast) was estimated by the linear trapezoid method. The last three or more time points were used to estimate the elimination rate constant (λz) which was used to estimate the terminal-phase half-life (T1/2) and AUC from zero to infinity (AUCINF) from the following equations: […]

In the case of “PEO90-140-b-P(DBA60-150-r-ICG0-3-r-AMA0-3) [Compound 1]”, the “Differences in pharmacokinetic parameters based on tumor type” value (Phase 1a and Phase 1b) is reported as “no apparent differences”, the T1/2 (ALL cancer types, Mean, N 16) is reported as 44.5 h and the AUC0-24 hr (ALL cancer types, Mean, N 18) is reported as 615 µg·h/mL. The AUCall (ALL cancer types, Mean, N 18) was 1670 µg·h/mL, the AUClast (ALL cancer types, Mean, N 18) was 1100 µg·h/mL and the C10 m (ALL cancer types, Mean, N 18) was 33.0 µg/mL. It also gave a Cmax (ALL cancer types, Mean, N 18) of 34300 ng/mL, a Tmax (ALL cancer types, Mean, N 18) of 0.834 h and a T1/2 (ALL cancer types, Median, N 16) of 40.5 h. It also gave an AUC0-24 hr (ALL cancer types, Median, N 18) of 615 µg·h/mL, an AUCall (ALL cancer types, Median, N 18) of 1170 µg·h/mL and an AUClast (ALL cancer types, Median, N 18) of 997 µg·h/mL. It also gave a C10 m (ALL cancer types, Median, N 18) of 32.4 µg/mL, a Cmax (ALL cancer types, Median, N 18) of 33600 ng/mL and a Tmax (ALL cancer types, Median, N 18) of 0.500 h. The AUC0-24 hr (BC, Mean, N 5) was 592 µg·h/mL, the AUCall (BC, Mean, N 5) was 1730 µg·h/mL and the AUClast (BC, Mean, N 5) was 1150 µg·h/mL. The C10 m (BC, Mean, N 5) was 31.2 µg/mL, the Cmax (BC, Mean, N 5) was 32900 ng/mL and the T1/2 (BC, Mean, N 5) was 51.0 h. The Tmax (BC, Mean, N 5) was 0.634 h, the AUC0-24 hr (BC, Median, N 5) was 574 µg·h/mL and the AUCall (BC, Median, N 5) was 1170 µg·h/mL. For the same substance, the AUClast (BC, Median, N 5) was 1020 µg·h/mL, the C10 m (BC, Median, N 5) was 33.0 µg/mL and the Cmax (BC, Median, N 5) was 33000 ng/mL. For the same substance, the T1/2 (BC, Median, N 5) was 45.5 h, the Tmax (BC, Median, N 5) was 0.500 h and the AUC0-24 hr (BC, individual subjects) was 630 µg·h/mL and 693 µg·h/mL and 574 µg·h/mL and 562 µg·h/mL and 502 µg·h/mL. For the same substance, the AUCall (BC, individual subjects) was 1170 µg·h/mL and 3190 µg·h/mL and 1020 µg·h/mL and 1120 µg·h/mL and 2120 µg·h/mL, the AUClast (BC, individual subjects) was 1020 µg·h/mL and 1740 µg·h/mL and 891 µg·h/mL and 968 µg·h/mL and 1110 µg·h/mL and the C10 m (BC, individual subjects) was 36.5 μg/mL and 33.0 μg/mL (2×) and 28.0 μg/mL and 25.5 μg/mL. For the same substance, the Cmax (BC, individual subjects) was 37700 ng/mL and 34300 ng/mL and 33000 ng/mL and 32000 ng/mL and 27600 ng/mL, the T1/2 (BC, individual subjects) was 34.5 h and 83.0 h and 30.6 h and 45.5 h and 61.4 h and the Tmax (BC, individual subjects) was 1.00 h and 0.170 h and 0.500 h. The AUC0-24 hr (CRC, Mean, N 3) was 677 µg·h/mL, the AUCall (CRC, Mean, N 3) was 1790 µg·h/mL and the AUClast (CRC, Mean, N 3) was 1150 µg·h/mL. For the same substance, the C10 m (CRC, Mean, N 3) was 35.5 µg/mL, the Cmax (CRC, Mean, N 3) was 36400 ng/mL and the T1/2 (CRC, Mean, N 3) was 46.3 h. The Tmax (CRC, Mean, N 3) was 0.557 h, the AUC0-24 hr (CRC, Median, N 3) was 684 µg·h/mL and the AUCall (CRC, Median, N 3) was 1090 µg·h/mL. The AUClast (CRC, Median, N 3) was 971 µg·h/mL, the C10 m (CRC, Median, N 3) was 35.8 µg/mL and the Cmax (CRC, Median, N 3) was 36400 ng/mL. The T1/2 (CRC, Median, N 3) was 33.4 h, the Tmax (CRC, Median, N 3) was 0.500 h and the AUC0-24 hr (CRC, individual subjects) was 721 µg·h/mL and 684 µg·h/mL and 626 µg·h/mL. For the same substance, the AUCall (CRC, individual subjects) was 3350 µg·h/mL and 939 µg·h/mL and 1090 µg·h/mL, the AUClast (CRC, individual subjects) was 1780 µg·h/mL and 684 µg·h/mL and 971 µg·h/mL and the C10 m (CRC, individual subjects) was 38.6 µg/mL and 32.1 µg/mL and 35.8 µg/mL. The Cmax (CRC, individual subjects) was 38600 ng/mL and 34100 ng/mL and 36400 ng/mL, the T1/2 (CRC, individual subjects) was 77.9 h and 33.4 h and 27.7 h and the Tmax (CRC, individual subjects) was 0.170 h and 1.00 h and 0.500 h. It also gave an AUC0-24 hr (EC, Mean, N 3) of 659 µg·h/mL, an AUCall (EC, Mean, N 3) of 1570 µg·h/mL and an AUClast (EC, Mean, N 3) of 1170 µg·h/mL. The C10 m (EC, Mean, N 3) was 34.7 µg/mL, the Cmax (EC, Mean, N 3) was 35800 ng/mL and the T1/2 (EC, Mean, N 3) was 37.1 h. It also gave a Tmax (EC, Mean, N 3) of 0.723 h, an AUC0-24 hr (EC, Median, N 3) of 606 µg·h/mL and an AUCall (EC, Median, N 3) of 1460 µg·h/mL. For the same substance, the AUClast (EC, Median, N 3) was 1270 µg·h/mL, the C10 m (EC, Median, N 3) was 32.6 µg/mL and the Cmax (EC, Median, N 3) was 32600 ng/mL. For the same substance, the T1/2 (EC, Median, N 3) was 34.4 h, the Tmax (EC, Median, N 3) was 1.00 h and the AUC0-24 hr (EC, individual subjects) was 606 µg·h/mL and 787 µg·h/mL and 585 µg·h/mL. For the same substance, the AUCall (EC, individual subjects) was 2150 µg·h/mL and 1460 µg·h/mL and 1100 µg·h/mL, the AUClast (EC, individual subjects) was 1280 µg·h/mL and 1270 µg·h/mL and 961 µg·h/mL and the C10 m (EC, individual subjects) was 31.4 µg/mL and 40.0 µg/mL and 32.6 µg/mL. The Cmax (EC, individual subjects) was 32600 ng/mL and 42200 ng/mL, the T1/2 (EC, individual subjects) was 43.3 h and 34.4 h and 33.6 h and the Tmax (EC, individual subjects) was 1.00 h and 0.170 h. It also gave a T1/2 (HNSCC, Mean, N 5) of 41.4 h, an AUC0-24 hr (HNSCC, Mean, N 7) of 585 µg·h/mL and an AUCall (HNSCC, Mean, N 7) of 1620 µg·h/mL. The AUClast (HNSCC, Mean, N 7) was 1020 µg·h/mL and the C10 m (HNSCC, Mean, N 7) was 32.5 µg/mL.
